{"source": "patent US20050203022A1", "target": "TGFβ1 (UniProt P01137)", "sequence (P01137 279-390 limits assumed)": "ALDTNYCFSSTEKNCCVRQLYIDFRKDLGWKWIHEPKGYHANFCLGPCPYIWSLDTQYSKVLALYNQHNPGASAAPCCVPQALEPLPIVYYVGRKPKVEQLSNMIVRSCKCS", "experiment": "cell-based or functional assay"}
{"substance": "recombinant rabbit TGFβRII:Fc fusion protein", "values": [{"measurement": "[3H] thymidine incorporation (CPM) of CCL64 mink lung cells with 0.1 ng/ml TGFβ1, TGFβRII:Fc at 0.02 µg/ml", "result": 57700, "unit": "CPM"}, {"measurement": "[3H] thymidine incorporation (CPM) of CCL64 mink lung cells with 0.1 ng/ml TGFβ1, TGFβRII:Fc at 0.04 µg/ml", "result": 49900, "unit": "CPM"}, {"measurement": "[3H] thymidine incorporation (CPM) of CCL64 mink lung cells with 0.1 ng/ml TGFβ1, TGFβRII:Fc at 0.08 µg/ml", "result": 63800, "unit": "CPM"}, {"measurement": "[3H] thymidine incorporation (CPM) of CCL64 mink lung cells with 0.1 ng/ml TGFβ1, TGFβRII:Fc at 0.16 µg/ml", "result": 75100, "unit": "CPM"}, {"measurement": "[3H] thymidine incorporation (CPM) of CCL64 mink lung cells with 0.1 ng/ml TGFβ1, TGFβRII:Fc at 0.31 µg/ml", "result": 119000, "unit": "CPM"}, {"measurement": "[3H] thymidine incorporation (CPM) of CCL64 mink lung cells with 0.1 ng/ml TGFβ1, TGFβRII:Fc at 0.62 µg/ml", "result": 150000, "unit": "CPM"}, {"measurement": "[3H] thymidine incorporation (CPM) of CCL64 mink lung cells with 0.1 ng/ml TGFβ1, TGFβRII:Fc at 1.25 µg/ml", "result": 168000, "unit": "CPM"}, {"measurement": "[3H] thymidine incorporation (CPM) of CCL64 mink lung cells with 0.1 ng/ml TGFβ1, TGFβRII:Fc at 2.5 µg/ml", "result": 179000, "unit": "CPM"}, {"measurement": "[3H] thymidine incorporation (CPM) of CCL64 mink lung cells with 0.1 ng/ml TGFβ1, TGFβRII:Fc at 5 µg/ml", "result": 179000, "unit": "CPM"}, {"measurement": "[3H] thymidine incorporation (CPM) of CCL64 mink lung cells with 0.1 ng/ml TGFβ1, TGFβRII:Fc at 10 µg/ml", "result": 182000, "unit": "CPM"}, {"measurement": "amount required to inhibit the anti-proliferative effect of 0.1 ng/ml TGFβ1 by 50%", "result": 0.5, "unit": "µg/mL"}]}
{"substance": "control IgG (antibody)", "values": [{"measurement": "[3H] thymidine incorporation (CPM) of CCL64 mink lung cells with 0.1 ng/ml TGFβ1, control IgG at 0.02 µg/ml", "result": 43000, "unit": "CPM"}, {"measurement": "[3H] thymidine incorporation (CPM) of CCL64 mink lung cells with 0.1 ng/ml TGFβ1, control IgG at 0.04 µg/ml", "result": 54400, "unit": "CPM"}, {"measurement": "[3H] thymidine incorporation (CPM) of CCL64 mink lung cells with 0.1 ng/ml TGFβ1, control IgG at 0.08 µg/ml", "result": 61900, "unit": "CPM"}, {"measurement": "[3H] thymidine incorporation (CPM) of CCL64 mink lung cells with 0.1 ng/ml TGFβ1, control IgG at 0.16 µg/ml", "result": 52800, "unit": "CPM"}, {"measurement": "[3H] thymidine incorporation (CPM) of CCL64 mink lung cells with 0.1 ng/ml TGFβ1, control IgG at 0.31 µg/ml", "result": 52400, "unit": "CPM"}, {"measurement": "[3H] thymidine incorporation (CPM) of CCL64 mink lung cells with 0.1 ng/ml TGFβ1, control IgG at 0.62 µg/ml", "result": 56700, "unit": "CPM"}, {"measurement": "[3H] thymidine incorporation (CPM) of CCL64 mink lung cells with 0.1 ng/ml TGFβ1, control IgG at 1.25 µg/ml", "result": 51400, "unit": "CPM"}, {"measurement": "[3H] thymidine incorporation (CPM) of CCL64 mink lung cells with 0.1 ng/ml TGFβ1, control IgG at 2.5 µg/ml", "result": 54400, "unit": "CPM"}, {"measurement": "[3H] thymidine incorporation (CPM) of CCL64 mink lung cells with 0.1 ng/ml TGFβ1, control IgG at 5 µg/ml", "result": 55100, "unit": "CPM"}, {"measurement": "[3H] thymidine incorporation (CPM) of CCL64 mink lung cells with 0.1 ng/ml TGFβ1, control IgG at 10 µg/ml", "result": 53600, "unit": "CPM"}]}
